Laboratory results: the Immune Epitope Database (IEDB)

What was measured:
[1] = molecular target: HLA-A*01:01; assay: IEDB peptide-MHC binding, purified MHC/direct/fluorescence; filed as Kd, often an IC50 or EC50 that approximates it; ≥ and ≤ were set here for values at or beyond the usual limits of such assays; conditions: source organism: Vibrio cholerae
[2] = molecular target: HLA-B*40:01; assay: as above; conditions: source organism: Vibrio cholerae
[3] = molecular target: HLA-A*03:01; assay: as above; conditions: source organism: Vibrio cholerae
[4] = molecular target: HLA-A*68:02; assay: as above; conditions: source organism: Vibrio cholerae
[5] = molecular target: HLA-B*15:01; assay: as above; conditions: source organism: Vibrio cholerae
[6] = molecular target: HLA-A*11:01; assay: as above; conditions: source organism: Vibrio cholerae
[7] = molecular target: HLA-A*26:02; assay: as above; conditions: source organism: Vibrio cholerae V52
[8] = molecular target: HLA-B*18:01; assay: as above; conditions: source organism: Vibrio cholerae
[9] = molecular target: HLA-A*26:01; assay: as above; conditions: source organism: Vibrio cholerae V52
[10] = molecular target: HLA-B*08:01; assay: as above; conditions: source organism: Vibrio cholerae V52
[11] = molecular target: HLA-B*07:02; assay: as above; conditions: source organism: Vibrio cholerae
[12] = molecular target: HLA-A*31:01; assay: as above; conditions: source organism: Vibrio cholerae
[13] = molecular target: HLA-B*57:01; assay: as above; conditions: source organism: Vibrio cholerae
[14] = molecular target: HLA-B*27:05; assay: as above; conditions: source organism: Vibrio cholerae
[15] = molecular target: HLA-A*02:01; assay: as above; conditions: source organism: Vibrio cholerae
[16] = molecular target: HLA-B*46:01; assay: as above; conditions: source organism: Vibrio cholerae
[17] = molecular target: HLA-B*58:01; assay: as above; conditions: source organism: Vibrio cholerae
[18] = molecular target: HLA-B*48:01; assay: as above; conditions: source organism: Vibrio cholerae
[19] = molecular target: HLA-B*08:02; assay: as above; conditions: source organism: Vibrio cholerae V52
[20] = molecular target: HLA-A*26:03; assay: IEDB peptide-MHC binding, purified MHC/competitive/fluorescence; filed as Kd, often an IC50 or EC50 that approximates it; ≥ and ≤ were set here for values at or beyond the usual limits of such assays; conditions: source organism: Vibrio cholerae 2740-80
[21] = molecular target: HLA-A*30:01; assay: as above; conditions: source organism: Vibrio cholerae 2740-80
[22] = molecular target: HLA-B*15:17; assay: as above; conditions: source organism: Vibrio cholerae 2740-80
[23] = molecular target: HLA-B*40:02; assay: IEDB peptide-MHC binding, cellular MHC/competitive/fluorescence; ≥ and ≤ were set here for values at or beyond the usual limits of such assays; conditions: source organism: Homo sapiens

AADFPGIAR
0.164 µM: Kd [6]
≥ 20 µM: Kd [1] | Kd [2] | Kd [4] | Kd [5] | Kd [7] | Kd [8] | Kd [9] | Kd [10] | Kd [11] | Kd [13] | Kd [14] | Kd [15] | Kd [16] | Kd [17] | Kd [18] | Kd [19] | Kd [20] | Kd [22]
6.3 µM: Kd [12]
1 µM: Kd [3]
2.11 µM: Kd [21]

REASPSRLS
1.9 µM: IC50 [23]

REFSKEPEL
0.8 µM: IC50 [23]
